The values that follow come from paper doi:10.1101/2021.02.02.429374 (bioRxiv, 2021).

The target of the experiment is yeast microtubules (assembled from tubulin purified from yeast, Tub1/Tub2-6His) (yeast, UniProt P09733 1-447; P02557 1-457). Briefly: TIRF microscopy-based microtubule-binding assay.
yeast microtubules (assembled from tubulin purified from yeast, Tub1/Tub2-6His), sequence (P09733 whole entry, chain 1 of 2): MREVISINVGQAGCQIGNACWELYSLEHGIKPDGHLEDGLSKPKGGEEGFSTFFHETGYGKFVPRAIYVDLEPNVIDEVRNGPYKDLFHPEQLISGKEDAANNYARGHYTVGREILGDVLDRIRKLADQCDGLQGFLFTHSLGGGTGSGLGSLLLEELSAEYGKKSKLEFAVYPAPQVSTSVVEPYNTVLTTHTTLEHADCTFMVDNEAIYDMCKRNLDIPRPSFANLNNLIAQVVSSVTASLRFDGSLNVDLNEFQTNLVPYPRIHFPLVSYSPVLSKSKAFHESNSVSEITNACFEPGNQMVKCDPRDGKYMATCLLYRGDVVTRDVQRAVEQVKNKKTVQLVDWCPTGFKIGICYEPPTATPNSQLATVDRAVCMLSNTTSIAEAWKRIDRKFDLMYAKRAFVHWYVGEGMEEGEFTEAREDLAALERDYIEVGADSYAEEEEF
yeast microtubules (assembled from tubulin purified from yeast, Tub1/Tub2-6His), sequence (P02557 whole entry, chain 2 of 2): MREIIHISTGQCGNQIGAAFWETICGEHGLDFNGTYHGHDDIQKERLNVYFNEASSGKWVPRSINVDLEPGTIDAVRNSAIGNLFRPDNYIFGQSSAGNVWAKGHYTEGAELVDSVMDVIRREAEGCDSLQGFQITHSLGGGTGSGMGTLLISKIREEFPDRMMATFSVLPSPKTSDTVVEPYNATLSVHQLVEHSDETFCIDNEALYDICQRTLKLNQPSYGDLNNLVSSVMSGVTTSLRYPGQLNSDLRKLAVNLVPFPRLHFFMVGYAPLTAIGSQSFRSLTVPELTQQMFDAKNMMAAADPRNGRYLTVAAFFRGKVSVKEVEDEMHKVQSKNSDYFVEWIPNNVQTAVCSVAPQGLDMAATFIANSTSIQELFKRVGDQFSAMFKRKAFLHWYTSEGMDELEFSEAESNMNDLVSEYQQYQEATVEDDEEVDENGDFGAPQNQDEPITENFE

B1: She1-NLS^SV40-HaloTag (other)
chain: MNDKLQEEHNEKDTTSQINGFTPPHMSIDFHSNNNSNIIETIGVSKRLGNSVLSELDSRASSKFEFLKDQSEQQYNGDKNNEPKSGSYNINEFFQAKHDSQFGQMESLDTHYTLLHTPKRKSQHAIPQDRSDSMKRSRPSRSIPYTTPVVNDITRRIRRLKLRNSLVNGNDIVARARSMQANSNINSIKNTPLSKPKPFMHKPNFLMPTTNSLNKINSAHRNTSSSSTASSIPRSKVHRSISIRDLHAKTKPVERTPVAQGTNSQLKNSVSVFDRLYKQTTFSRSTSMNNLSSGTSAKSKEHTNVKTRLVKSKTSGSLSSNLKQSTATGTKSDRPIWRGSGSAAAPKKKRKVG
modifications: HaloTag-TMR ligand on the HaloTag
One may read the Kd as a measure of binding affinity in units of concentration. Turning to B1, binding was put at a Kd of 0.806 µM.

B2: She1-HaloTag^TMR (wild-type She1) (natural protein, budding yeast, UniProt P38200 1-338, looked up)
chain: MNDKLQEEHNEKDTTSQINGFTPPHMSIDFHSNNNSNIIETIGVSKRLGNSVLSELDSRASSKFEFLKDQSEQQYNGDKNNEPKSGSYNINEFFQAKHDSQFGQMESLDTHYTLLHTPKRKSQHAIPQDRSDSMKRSRPSRSIPYTTPVVNDITRRIRRLKLRNSLVNGNDIVARARSMQANSNINSIKNTPLSKPKPFMHKPNFLMPTTNSLNKINSAHRNTSSSSTASSIPRSKVHRSISIRDLHAKTKPVERTPVAQGTNSQLKNSVSVFDRLYKQTTFSRSTSMNNLSSGTSAKSKEHTNVKTRLVKSKTSGSLSSNLKQSTATGTKSDRPIWR
modifications: HaloTag-TMR ligand on the HaloTag
The molecule B2 yielded a Kd of 0.854 µM.
